Experimental data taken from patent US20240409617A1.

B1: Ab 38 scFv-Fc (scFv, V domains shown)
VH: QVTLKESGPTLVKPTQTLTLTCTFSGFSLTTSGVSVGWIRQPPGKALEWLALIHWDDDKRYSPSLRSRLTITRDTSKNQVVLTVTDMDPADTGTYYCASFIMTVYAEYFEDWGQGTLVTVSS
VL: EIVLTQSPATLSVSPGERATLSCRASQSVSSNLAWYQQKPGQAPRLLMYDVSTRATGIPARFSGSGSGTEFSLTISSLQSEDFAVYYCQQRGAWPLTFGGGTKVEIK
B2: Ab 31 scFv-Fc (scFv, V domains shown)
VH: QVQLVQSGAEVKKPGSSVKVSCKASGGTFSSYTISWVRQAPGQGLEWMGGIIPILGTPNYAQKFQDRVAITADKSTSTAYMELSSLRSEDTAVYYCAVGSGWYSGFDYWGQGTLVTVSS
VL: NFMLTQPHSVSESPGKTVTISCTGSSGSIASNYVQWYQQRPGSAPTTVIYEDSQRPSGVPDRFSGSIDSSSNSASLTISGLKTEDEADYYCQSFHNSNPVIFGGGTKLTVL

What was measured:
[1] = target: D614G Spike (SARS-CoV-2 spike protein, D614G) (SARS-CoV-2)
[2] = target: P.1 Spike (SARS-CoV-2 spike protein, Brazilian variant P.1) (SARS-CoV-2)
[3] = target: B.1.351 Spike (SARS-CoV-2 spike protein, South African variant B.1.351) (SARS-CoV-2)
[4] = target: B.1.1.7 Spike (SARS-CoV-2 spike protein, UK variant B.1.1.7) (SARS-CoV-2)

Binder	Kd [1] [pM]	Response [1]	Kd [2] [pM]	Response [2]	Kd [3] [pM]	Response [3]	Kd [4] [pM]	Response [4]
B1	3.37	0.328	7.23	0.228	7.62	0.234	1.47	0.267
B2			8.97	0.0789	< 1	0.09	< 1	0.135
